Test results: patent US9074002B2, “PTP1B inhibitors” (Cold Spring Harbor Laboratory, priority 2009, dated 2015)
Entries after “also recorded” stand apart in the source; their conditions may differ.

T1: endogenous PTP1B-OX (Homo sapiens, UniProt P18031)
T1 construct: endogenous in cells; host or cells: 293T cells (transfected only with the scFv intrabody)
T1 sequence (P18031 1-435): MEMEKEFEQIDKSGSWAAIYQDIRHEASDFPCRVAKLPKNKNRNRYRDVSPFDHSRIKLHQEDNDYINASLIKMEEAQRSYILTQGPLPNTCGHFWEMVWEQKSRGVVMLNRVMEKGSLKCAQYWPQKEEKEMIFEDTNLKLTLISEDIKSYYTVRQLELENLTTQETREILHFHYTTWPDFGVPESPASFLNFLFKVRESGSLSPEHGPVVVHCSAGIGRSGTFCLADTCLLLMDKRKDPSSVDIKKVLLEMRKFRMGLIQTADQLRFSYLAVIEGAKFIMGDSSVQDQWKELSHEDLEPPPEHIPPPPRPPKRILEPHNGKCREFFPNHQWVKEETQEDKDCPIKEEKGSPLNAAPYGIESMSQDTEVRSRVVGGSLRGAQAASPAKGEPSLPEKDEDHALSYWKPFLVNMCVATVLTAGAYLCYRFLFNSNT

T2: PTP1B (reduced, active) (Homo sapiens, UniProt P18031)
T2 construct: made in house; host or cells: E. coli BL21 (pET19b)
T2 sequence (P18031 3-277 limits assumed): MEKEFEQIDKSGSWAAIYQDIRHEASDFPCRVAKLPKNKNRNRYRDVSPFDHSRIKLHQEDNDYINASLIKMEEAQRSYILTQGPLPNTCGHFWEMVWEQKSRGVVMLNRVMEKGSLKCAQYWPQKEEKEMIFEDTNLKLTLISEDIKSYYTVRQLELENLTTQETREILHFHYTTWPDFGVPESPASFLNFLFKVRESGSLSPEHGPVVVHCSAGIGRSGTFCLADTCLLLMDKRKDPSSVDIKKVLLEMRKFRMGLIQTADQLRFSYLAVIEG

T3: PTP1B-OX (Homo sapiens, UniProt P18031)
T3 construct: made in house; host or cells: E. coli BL21 (pET19b)
T3 sequence (P18031 3-277): T2 sequence (P18031 3-277 limits assumed)

T4: endogenous PTP1B under reducing conditions (Homo sapiens, UniProt P18031)
T4 construct: endogenous in cells; host or cells: 293T cells (transfected only with the scFv intrabody)
T4 sequence (P18031 1-435): T1 sequence (P18031 1-435)

T5: PTP1B under reducing condition (purified recombinant 37 kDa wild type PTP1B, with TCEP) (human, UniProt P18031 1-321)
T5 construct: Same protein as m1 but kept reduced (2 mM TCEP); also called reduced, active PTP1B
T5 sequence: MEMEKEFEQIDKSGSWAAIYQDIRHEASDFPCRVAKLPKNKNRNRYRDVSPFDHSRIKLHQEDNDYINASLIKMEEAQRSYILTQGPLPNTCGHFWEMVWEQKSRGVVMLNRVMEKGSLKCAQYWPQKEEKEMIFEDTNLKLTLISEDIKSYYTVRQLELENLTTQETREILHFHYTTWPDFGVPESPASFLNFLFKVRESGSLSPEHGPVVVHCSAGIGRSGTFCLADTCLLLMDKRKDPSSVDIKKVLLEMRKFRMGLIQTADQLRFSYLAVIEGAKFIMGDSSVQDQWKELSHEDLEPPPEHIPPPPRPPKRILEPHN

T6: PTP1B-OX (purified recombinant 37 kDa PTP1B, reversibly oxidized with H2O2) (human, UniProt P18031 1-321, catalytic Cys 215 reversibly oxidized by H2O2 (cyclic sulphenamide form))
T6 construct: also called PTP1B-SN
T6 sequence: T5 sequence

B1: scFv64: scFv binding PTP1B-OX, SEQ ID NO: 28 and 97 (protein)
scFv: MKKTAIAIAVALAGFATVAQAALTQPSSVSANPGDPLKITCSGDSSGYGYGWYQQKSPGSAPVTVIYNNNKRPSDIPSRFSGSKSGSTGTLTITGVQAEDEAVYFCGSEDSNTDAVFGAGTTLTVLGQSSRSSTVTLDESGGGLQTPGGTLSLACKASGFTFSGYDMGWVRQAPGKGLEYVAGITSDGRYASYGSAVDGRAAIWRDNGQSTVRLQLKNLRTEDTATYYCARNDGSGWNGNNIDAWGHGTEVIVSSTSGQAGQHHHHHHGAYPYDVPDYAS
B2: scFv106: scFv binding PTP1B-OX, SEQ ID NO: 29 and 133 (protein)
scFv: MKKTAIAIAVALAGFATVAQAALTQPSSVSANPGETVKITCSGDSSDYGYGWYQQKSPGSAPVTVTYSNNQRPPNIPSRFSGSASGSTATLTITGVQVEDEAVYYCGSEDSTTDAVFGAGTTLTVLGQSSRSSAMTLDESGGGLQTPGGALSLVCKASGFTFSSYDMGWVRQAPGKGLEYVAGITNDGRYASYGSAVDGRATISRDNGQSTVRLQLNNLRAEDTGTYYCARDDGSGWTGNTIDTWGHGTEVIVSSTSGQAGQHHHHHHGAYPYDVPDYAS
B3: scFv48 (scFv)
scFv: LTQPSSVSANPGETVKITCSEGGRSSYYGWYQQKAPGSAPVTVIYDSSSRPSDIPSRFSGSKSGSTGTLTITGVQAEDEAVYYCGSTDSSTSAAIFGAGTTLTVLGQSSRSSTVTLDESGGGLQTPGRALSLVCKASGFTFSSFNMGWVRQAPGKGLEYVASISSSGSYTAYGSAVKGRATISRDNGQSTVRLQLNNLRAEDTATYYCAKAAGSAYYYTAVTPAFAGSIDAWGHGTEVIVSSTSGQAGQHHHHHHGAYPYDVPDYAS

Experiments:
endogenous PTP1B-OX = biological target: T1, endogenous PTP1B-OX; assay: Intrabody interaction in 293T cells treated with H2O2 (Ni-NTA pull down / anti-PTP1B immunoprecipitation); type: cell-based; conditions: 1 mM H2O2 5 minutes, FIGS. 11, 12
Summary of the method: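 293T cells transiently expressing HA-detected scFv intrabodies, serum-starved 16 h, then 1 mM H2O2 for 5 min or 20 mM NAC for 1 h at 37 °C (NAC lysates with 2 mM TCEP). Complexes from 1 mg lysate captured by Ni-NTA pull-down or anti-PTP1B (FG6) IP; PTP1B and intrabody detected by immunoblot.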

PTP1B (reduced, active) = biological target: T2, PTP1B (reduced, active); assay: Direct effect of scFvs/antibodies on PTP1B phosphatase activity (32P-pTyr-RCML substrate); type: biochemical; conditions: 32P-labeled pTyr-RCML substrate, FIG. 1
Protocol: (§1) Applicant's hypothesis was that scFvs that are able to bind to and stabilize the oxidized conformation of PTP1B in solution would inhibit reactivation by reducing agent, but have no direct inhibitory effect on phosphatase activity in assays in vitro. Activity was measured using ^32P-labeled pTyr-Reduced Carboxamidomethylated and Maleylated Lysozyme as substrate. Applicant established conditions in which wild type PTP1B could be reversibly oxidized in vitro. PTP1B was inactivated following addition of H2O2. […] Applicant validated this approach further, by testing the effects of expressing one of the scFvs (scFv45) as a single chain antibody fragment “intrabody” to PTP1B, using 293T cells as the expression system. This intrabody was expressed transiently and then tested for effects on insulin signaling, focusing initially on the tyrosine phosphorylation status of the beta-subunit of the insulin receptor and insulin receptor substrate (IRS-1).
(§2) Reduced carboxamidomethylated and maleylated lysozyme (RCML) was labeled with ^32P using recombinant GST-FER kinase to stoichiometries up to 0.8 (mol ^32P incorporated/mol of protein). This ^32P-Labeled phospho-tyrosyl RCML was used as the substrate in the in-solution phosphatase assay for screening the conformation sensor scFvs. Recombinant PTP1B was reversibly oxidized and transiently inactivated with H2O2 (5× molar excess of the protein). […] Purified bacterially expressed scFvs (100× molar excess of PTP1B) were incubated with PTP after H2O2 treatment and its removal and the effect of individual scFv on stabilizing the reversibly oxidized conformation was assessed by the phosphatase assay under reducing condition.
In order to screen the isolated scFvs for those that inhibit reactivation of PTP1B-OX by reducing agent, but have no direct inhibitory effect on phosphatase activity in assays in vitro, the effect of six scFvs (scFv20, scFv34, scFv45, scFv57, scFv64 and scFv106) on PTP1B activity was determined. PTP1B activity was measured using 32P-labeled pTyr-Reduced Carboxamidomethylated and Maleylated Lysozyme as substrate (FIGS. 1 and 2). Addition of the reducing agent TCEP alone had no substantial effect in PTP1B activity was assessed.

PTP1B-OX = biological target: T3, PTP1B-OX; assay: Inhibition of reactivation of reversibly oxidized PTP1B by reducing agent (RCML phosphatase assay); type: biochemical; conditions: PTP1B oxidized with H2O2, buffer exchange, TCEP added; FIG. 2
Protocol: as §1, §2
In a different experiment, conditions were established in which wild type PTP1B could be reversibly oxidized in vitro. […] Addition of the reducing agent alone had no substantial effect on PTP1B activity (FIGS. 1 and 2, “PTP1B”).

[1] = biological target: T4, endogenous PTP1B under reducing conditions; assay: Intrabody interaction in 293T cells under reducing condition (NAC, TCEP) (Ni-NTA pull down / immunoprecipitation); type: cell-based; conditions: 20 mM NAC, lysis buffer with 2 mM TCEP, FIGS. 11, 12
Protocol: One of the positive candidate scFvs (scFv45) was cloned in pcDNA3.2/V5-GW/D-TOPO expression vector and transiently expressed in mammalian cells as stable intracellular antibody (aka intrabody) (FIG. 10). To detect PTP1B-OX and scFv45 interaction in mammalian cells, scFv45 was overexpressed in 293T cells as described herein (See Example 4) and 48 hours post transfection the cells were serum-starved for 16 hours in growth medium (DMEM, low glucose) without serum (FBS), then incubated with 1 mM H2O2 (in growth medium without serum) for 5 minutes at 37° C. or treated with 20 mM NAC (in growth medium without serum) for 1 hour at 37° C. Cells treated with H2O2 were washed twice with cold (4° C.) PBS and lysed in lysis buffer (25 mM HEPES, pH 7.4, 150 mM NaCl, 0.25% Deoxychloate, 1% TritonX-100, 25 mM NaF, 10 mM MgCl2, 1 mM EDTA, 10% Glycerol, 0.5 mM PMSF, 10 mM Benzamidine, protease inhibitor cocktail). Cells treated with NAC were lysed with lysis buffer containing 2 mM TCEP to ensure a post-lysis reducing environment. Interaction between PTP1B and intrabody45 were tested by pulling down the protein complex from 1 mg of total cell lysate with Ni-NTA agarose or by immunoprecipitating PTP with anti-PTP1B (FG6). For the pull down experiment, Ni-NTA agarose beads were incubated with the lysates (both oxidized and reduced) at 4° C. Protein complex bound to the Ni-NTA agarose beads was pulled down and washed three times; first with lysis buffer containing 20 mM imidazole followed by two more washes with wash buffer (PBS, pH 7.4, 20 mM imidazole, 0.05% BSA, 0.05% Tween-20 and protease inhibitors). Applicant used 20 mM imidazole in the wash buffer to reduce the non-specific binding of proteins with the Ni-NTA agarose beads. The complex was eluted with wash buffer containing 500 mM imidazole with gentle shaking at 4° C. and the eluate was mixed with SDS sample buffer with DTT. For the immunoprecipitation experiments, 1 mg of total cell lystates (both oxidized and reduced) was incubated with anti-PTP1B antibody (FG6) at 4° C. The interacting protein complex was immunoprecipitated after incubating the lysate-antibody mixture with protein A/G Sepharose at 4° C. After immunoprecipitation, Sepharose beads were washed three times; first with lysis buffer followed by two more washes with wash buffer (PBS, pH 7.4, 0.05% BSA, 0.05% Tween-20 and protease inhibitors). The Sepharose beads were then heated at 90° C. in 2×SDS sample buffer with DTT. Proteins from the pulled down or immunoprecipitated complex were separated by SDS-PAGE. PTP was detected with anti-PTP1B antibody (FG6) and the intrabodies were detected with anti-HA (3F10)-HRP antibody [anti-HA (3F10)-HRP, Roche] by immunoblotting.
In the initial in vitro phosphatase screening assay using reversibly oxidized (with H2O2) recombinant PTP1B, Applicant found four different PTP1B-OX specific scFvs (scFv45, scFv57, scFv64 and scFv106) from the initial pool of 12 different scFvs. […] Applicant has also shown that scFv45, expressed as an intrabody in mammalian cells, can bind to endogenous PTP1B-OX but not endogenous PTP under reducing conditions. Further assessment was carried out to identify additional PTP1B-OX-specific intrabodies. Additional scFvs have been subcloned in pcDNA3.2/V5-GW/D-TOPO mammalian expression vector (FIG. 10) from their respective phagemid constructs. […]

[2] = biological target: T5, PTP1B under reducing condition …; assay: in vitro Ni-NTA pull-down of purified scFv with purified PTP1B in 2 mM TCEP, immunoblot
Protocol: (§3) In the in vitro binding assay, purified PTP was reversibly oxidized with […] followed by a quick buffer exchange to remove H_2O_2 (FIG. 8). Purified scFv was incubated in molar excess with PTP1B-OX or with PTP under reducing condition (with 2 mM TCEP) in binding buffer (20 mM HEPES, pH 7.4, 300 mM NaCl, 0.05% BSA, 0.05% Tween-20 and 10 mM imidazole) for 2 hours at 4° C. Ni-NTA agarose was added and incubated for one hour at 4° C. Protein complex bound to Ni-NTA agarose beads was pulled down and washed (three times, 5 minutes each, at 4° C.) with binding buffer containing 20 mM imidazole to reduce non-specific binding to the beads. The protein complex was eluted from the Ni-NTA agarose beads with 500 mM imidazole (in binding buffer, pH 7.4) for 15 minutes at 4° C. with gentle shaking. The complex was separated by SDS-PAGE and PTP1B was detected with anti-PTP1B antibody (FG6) and scFv was detected with anti-HA antibody [anti-HA (3F10)-HRP, Roche] by immunoblotting. Eight different scFvs (scFvs 20, 21, 24, 28, 45, 48, 57, and 105), expressed and purified from bacterial cultures were tested by this in vitro binding experiment.

[3] = biological target: T6, PTP1B-OX (purified recombinant 37 kDa …); assay: in vitro Ni-NTA pull-down of purified scFv with purified PTP1B-OX, immunoblot
Protocol: as §3

Row | Molecule | binding of intrabody to endogenous PTP1B-OX (endogenous PTP1B-OX) | direct effect on PTP1B activity (PTP1B (reduced, active)) | inhibition of reactivation of PTP1B-OX by reducing agent (restoration of PTP1B activity after reversible oxidation) (PTP1B-OX) | binding of intrabody to endogenous PTP1B under reducing conditions [1] | binding result [2] | binding result [3]
1 | B1 | bound weakly to PTP1B-OX | no direct inhibition of PTP activity | substantial inhibition of the restoration of PTP1B activity | – | – | –
2 | B2 | bound to endogenous PTP1B-OX strongly; also recorded: co-pulldown of PTP1B-OX in the presence of H2O2 | no direct inhibition of PTP activity | substantial inhibition of the restoration of PTP1B activity | not in the presence of NAC and TCEP | – | –
3 | B3 | – | – | – | – | no binding | no binding
